Where no end group is shown, it is not given here. The star is where a group is joined. DTPA = O=C(O)CN(CCN(CC(=O)O)CC(=O)O)CCN(CC(=O)O)CC(=O)*
T1: RXFP1 G41D42-AA (Homo sapiens, UniProt Q9HBX9, D64A/G63A)
T1 construct: transiently transfected human embryonic kidney (HEK) 293T cells expressing full-length RXFP1 and mutants; expressed in transfected cells; host or cells: HEK293T
T1 sequence (Q9HBX9 23-757 G63A/D64A limits assumed): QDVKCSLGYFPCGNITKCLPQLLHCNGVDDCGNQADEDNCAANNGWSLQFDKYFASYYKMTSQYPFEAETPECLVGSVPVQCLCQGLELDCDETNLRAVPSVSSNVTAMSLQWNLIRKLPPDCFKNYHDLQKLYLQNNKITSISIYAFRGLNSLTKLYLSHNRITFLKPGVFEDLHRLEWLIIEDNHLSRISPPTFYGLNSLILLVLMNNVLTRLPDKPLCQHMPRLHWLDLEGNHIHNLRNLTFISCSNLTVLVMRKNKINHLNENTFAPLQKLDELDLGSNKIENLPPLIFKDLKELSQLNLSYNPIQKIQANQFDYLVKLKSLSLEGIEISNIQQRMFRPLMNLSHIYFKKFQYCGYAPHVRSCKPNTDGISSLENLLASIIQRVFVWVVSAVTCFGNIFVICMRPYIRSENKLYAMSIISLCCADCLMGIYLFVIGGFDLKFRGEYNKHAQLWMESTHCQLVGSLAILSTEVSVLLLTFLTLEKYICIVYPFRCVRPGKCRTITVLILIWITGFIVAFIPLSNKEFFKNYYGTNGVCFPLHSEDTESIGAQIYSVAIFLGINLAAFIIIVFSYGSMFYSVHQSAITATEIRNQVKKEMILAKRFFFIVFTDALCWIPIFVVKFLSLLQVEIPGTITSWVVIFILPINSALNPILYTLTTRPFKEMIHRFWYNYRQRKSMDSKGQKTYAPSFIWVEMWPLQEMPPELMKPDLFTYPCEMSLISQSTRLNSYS

T2: RXFP1 (Homo sapiens, UniProt Q9HBX9)
T2 construct: transiently transfected human embryonic kidney (HEK) 293T cells expressing full-length RXFP1 and mutants; expressed in transfected cells; host or cells: HEK293T
T2 sequence (Q9HBX9 1-757): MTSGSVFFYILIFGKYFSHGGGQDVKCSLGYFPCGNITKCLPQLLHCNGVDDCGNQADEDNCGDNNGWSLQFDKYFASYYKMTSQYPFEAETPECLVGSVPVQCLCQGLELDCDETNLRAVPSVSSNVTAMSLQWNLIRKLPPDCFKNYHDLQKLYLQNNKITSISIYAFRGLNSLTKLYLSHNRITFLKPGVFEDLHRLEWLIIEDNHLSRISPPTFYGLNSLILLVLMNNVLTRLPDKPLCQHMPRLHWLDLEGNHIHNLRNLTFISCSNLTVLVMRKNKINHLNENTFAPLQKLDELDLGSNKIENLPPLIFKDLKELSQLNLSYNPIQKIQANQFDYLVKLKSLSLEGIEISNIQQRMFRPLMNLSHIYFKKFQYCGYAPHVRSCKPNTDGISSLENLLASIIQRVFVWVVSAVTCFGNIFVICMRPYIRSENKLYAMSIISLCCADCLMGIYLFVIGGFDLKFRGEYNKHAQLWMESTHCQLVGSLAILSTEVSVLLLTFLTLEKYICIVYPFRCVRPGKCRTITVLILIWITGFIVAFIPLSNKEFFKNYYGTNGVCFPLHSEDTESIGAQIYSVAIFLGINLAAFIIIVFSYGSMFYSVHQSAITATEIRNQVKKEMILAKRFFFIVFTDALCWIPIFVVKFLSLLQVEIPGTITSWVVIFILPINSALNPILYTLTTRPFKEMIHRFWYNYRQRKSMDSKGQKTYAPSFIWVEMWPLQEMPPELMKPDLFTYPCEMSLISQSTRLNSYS

T3: relaxin family peptide receptor-1 (RXFP1), wild type, full length (human, UniProt Q9HBX9 23-757)
T3 construct: also called wild-type RXFP1; source: HEK293T, transiently transfected, on cells; not shown: FLAG, N-terminal, kept
T3 sequence (looked up): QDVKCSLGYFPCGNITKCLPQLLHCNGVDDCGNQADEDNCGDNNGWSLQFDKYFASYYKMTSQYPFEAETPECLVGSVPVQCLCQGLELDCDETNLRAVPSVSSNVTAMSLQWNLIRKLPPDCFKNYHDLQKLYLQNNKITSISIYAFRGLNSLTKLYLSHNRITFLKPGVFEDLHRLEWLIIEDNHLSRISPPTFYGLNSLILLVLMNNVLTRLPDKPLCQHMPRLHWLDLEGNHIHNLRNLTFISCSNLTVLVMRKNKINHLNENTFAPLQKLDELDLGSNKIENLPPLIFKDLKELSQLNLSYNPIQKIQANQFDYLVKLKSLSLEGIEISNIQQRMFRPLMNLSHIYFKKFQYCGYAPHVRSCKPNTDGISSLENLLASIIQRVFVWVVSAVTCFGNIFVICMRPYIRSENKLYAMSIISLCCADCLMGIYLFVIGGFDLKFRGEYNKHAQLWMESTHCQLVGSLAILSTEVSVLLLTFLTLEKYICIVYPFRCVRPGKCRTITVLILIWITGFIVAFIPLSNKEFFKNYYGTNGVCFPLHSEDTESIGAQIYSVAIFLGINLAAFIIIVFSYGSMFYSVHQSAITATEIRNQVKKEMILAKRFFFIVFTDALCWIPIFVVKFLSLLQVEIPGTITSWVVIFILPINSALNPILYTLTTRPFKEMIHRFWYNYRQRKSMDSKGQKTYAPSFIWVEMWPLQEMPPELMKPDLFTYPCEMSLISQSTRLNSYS

B1: Europium-labelled H2 relaxin (ligand, human)
chain 1: {DTPA}-QLYSALANKCCHVGCTKRSLARFC
chain 2: DSWMEEVIKLCGRELVRAQIAICGMSTWS
modifications: not fully specified; ends and bridges not checked; also: DTPA cage loaded with Eu^3+
notes: A chain of human gene-2 (H2) relaxin; numbers count on: the A chain; B chain of human gene-2 (H2) relaxin; numbers count on: the B chain; also called Eu-H2 relaxin; Eu-H2

Columns and labels:
[1] = molecular target: T1, RXFP1 G41D42-AA; assay: Eu-H2 relaxin saturation binding assay, transfected HEK293T cells; conditions: construct G41D42-AA, maximum H2 concentration 15 nM
[2] = molecular target: T2, RXFP1; assay: cAMP activity assay (pCRE β-galactosidase reporter), transfected HEK293T cells; assay type: cell-based; conditions: construct RXFP1 (wild type), ±s.e.m.
Procedure: Media was aspirated and plates stored frozen at −80 °C overnight. […] H2 relaxin dilutions were prepared in minimal media containing 1% DMSO. Positive and negative control stimulations were achieved by incubation with 5 μM Forskolin and minimal media/1% DMSO, respectively. Plates were developed by 10 min of incubation in 25 μl of lysis buffer 1 (100 mM Na2HPO4, pH 8.0, 0.2 mM MgSO4 0.01 mM MnCl2); a further 10 min of incubation in 100 μl of buffer 2 (100 mM Na2HPO4, pH 8.0, 2 mM MgSO4, 0.1 mM MnCl2, 0.5% Triton X-100, 40 mM β-mercaptoethanol); then to each well 25 μl of the β-galactosidase substrate, chlorophenol red-β-D-galactopyranoside (Roche) was added. All incubation steps were conducted with orbital shaking. Color-change was monitored and readings were taken on a Benchmark Plus Microplate Reader (Bio-Rad) at 570 nm. A minimum of three separate experiments were performed, each of them in triplicate, and data were pooled and presented as percentages of the maximum response induced by 5 μM Forskolin±s.e.m.

[3] = molecular target: T3, relaxin family peptide receptor-1 …; assay: europium-labelled ligand saturation binding on cells (time-resolved fluorescence); HEK293T cells transiently transfected with receptor, 96-well plates; increasing Eu-H2 relaxin (maximum 15 nM) with or without 1 μM unlabelled H2 relaxin, 1 h, room temperature; 20 mM HEPES pH 7.5, 1.5 mM CaCl2, 50 mM NaCl, 0.01% NaN3, 1% BSA; one-site fit; conditions: one partner purified

Molecule | Kd [1] [nM] | H2 relaxin pEC50 ([2]; cAMP reporter) | H2 relaxin Emax ([2]; percentage of maximum response to 5 μM Forskolin) | Kd [3] [nM]
H2 relaxin: two-chain 6-kDa peptide hormone structurally related to insulin; recombinant human gene-2 H2 relaxin provided by Corthera | > 20 | 10.97±0.05 (6) | 116.3±4.2 (6) % | –
B1 | – | – | – | 0.57

Reference: paper PMC4837482, “The complex binding mode of the peptide hormone H2 relaxin to its receptor RXFP1” (Nature Communications, 2016)
